Blank lines part the entries; values can stand above or below the binder they belong to. Ends that are not written are not given here. * marks the point of attachment. Biotin = O=C1N[C@H]2[C@H](CS[C@H]2CCCCC(=O)*)N1
Tests used:
pep24 = molecular target: T1, pep24 (cysteine pairing not given here); test: polypeptide dot matrix ELISA
T1 peptide: SYEMEEDGVRKCKKCEK(Biotin)

pep25 = molecular target: T2, pep25 (cysteine pairing not given here); test: polypeptide dot matrix ELISA
T2 peptide: YEMEEDGVRKCKKCEGK(Biotin)

pep27 = molecular target: T3, pep27 (cysteine pairing not given here); test: polypeptide dot matrix ELISA
T3 peptide: MEEDGVRKCKKCEGPCK(Biotin)

pep28 = molecular target: T4, pep28 (cysteine pairing not given here); test: polypeptide dot matrix ELISA
T4 peptide: EEDGVRKCKKCEGPCRK(Biotin)

pep29 = molecular target: T5, pep29 (cysteine pairing not given here); test: polypeptide dot matrix ELISA
T5 peptide: EDGVRKCKKCEGPCRKK(Biotin)

pep31 = molecular target: T6, pep31 (cysteine pairing not given here); test: polypeptide dot matrix ELISA
T6 peptide: GVRKCKKCEGPCRKVCK(Biotin)

pep32 = molecular target: T7, pep32 (cysteine pairing not given here); test: polypeptide dot matrix ELISA
T7 peptide: VRKCKKCEGPCRKVCNK(Biotin)

pep33 = molecular target: T8, pep33 (cysteine pairing not given here); test: polypeptide dot matrix ELISA
T8 peptide: RKCKKCEGPCRKVCNGK(Biotin)

pep34 = molecular target: T9, pep34 (cysteine pairing not given here); test: polypeptide dot matrix ELISA
T9 peptide: KCKKCEGPCRKVCNGIK(Biotin)

pep35 = molecular target: T10, pep35 (cysteine pairing not given here); test: polypeptide dot matrix ELISA
T10 peptide: CKKCEGPCRKVCNGIGK(Biotin)

pep02 = molecular target: T11, pep02; test: polypeptide dot matrix ELISA
T11 peptide: EEKKGNYVVTDHGSCVK(Biotin)

pep04 = molecular target: T12, pep04; test: polypeptide dot matrix ELISA
T12 peptide: KKGNYVVTDHGSCVRAK(Biotin)

pep06 = molecular target: T13, pep06 (cysteine pairing not given here); test: polypeptide dot matrix ELISA
T13 peptide: GNYVVTDHGSCVRACGK(Biotin)

pep07 = molecular target: T14, pep07 (cysteine pairing not given here); test: polypeptide dot matrix ELISA
T14 peptide: NYVVTDHGSCVRACGAK(Biotin)

pep08 = molecular target: T15, pep08 (cysteine pairing not given here); test: polypeptide dot matrix ELISA
T15 peptide: YVVTDHGSCVRACGADK(Biotin)

pep09 = molecular target: T16, pep09 (cysteine pairing not given here); test: polypeptide dot matrix ELISA
T16 peptide: VVTDHGSCVRACGADSK(Biotin)

pep10 = molecular target: T17, pep10 (cysteine pairing not given here); test: polypeptide dot matrix ELISA
T17 peptide: VTDHGSCVRACGADSYK(Biotin)

pep12 = molecular target: T18, pep12 (cysteine pairing not given here); test: polypeptide dot matrix ELISA
T18 peptide: DHGSCVRACGADSYEMK(Biotin)

pep14 = molecular target: T19, pep14 (cysteine pairing not given here); test: polypeptide dot matrix ELISA
T19 peptide: GSCVRACGADSYEMEEK(Biotin)

pep15 = molecular target: T20, pep15 (cysteine pairing not given here); test: polypeptide dot matrix ELISA
T20 peptide: SCVRACGADSYEMEEDK(Biotin)

pep16 = molecular target: T21, pep16 (cysteine pairing not given here); test: polypeptide dot matrix ELISA
T21 peptide: CVRACGADSYEMEEDGK(Biotin)

pep17 = molecular target: T22, pep17; test: polypeptide dot matrix ELISA
T22 peptide: VRACGADSYEMEEDGVK(Biotin)

pep18 = molecular target: T23, pep18; test: polypeptide dot matrix ELISA
T23 peptide: RACGADSYEMEEDGVRK(Biotin)

pep19 = molecular target: T24, pep19; test: polypeptide dot matrix ELISA
T24 peptide: ACGADSYEMEEDGVRKK(Biotin)

pep20 = molecular target: T25, pep20 (cysteine pairing not given here); test: polypeptide dot matrix ELISA
T25 peptide: CGADSYEMEEDGVRKCK(Biotin)

pep21 = molecular target: T26, pep21; test: polypeptide dot matrix ELISA
T26 peptide: GADSYEMEEDGVRKCKK(Biotin)

pep22 = molecular target: T27, pep22; test: polypeptide dot matrix ELISA
T27 peptide: ADSYEMEEDGVRKCKKK(Biotin)

pep23 = molecular target: T28, pep23 (cysteine pairing not given here); test: polypeptide dot matrix ELISA
T28 peptide: DSYEMEEDGVRKCKKCK(Biotin)

[1] = molecular target: T29, human EGFRvIII protein on the cell surface (human, UniProt P00533 25-1210); test: FACS on U87MG-EGFRvIII cells
T29 construct: whole, on cells; the cell line is named under assay; also called hEGFRvIII; U87MG-hEGFRvIII
Outline: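 U87MG-EGFRvIII, A431 and primary human hepatocytes (2×10⁶ cells/mL, goat-serum blocked) were incubated with antibody on ice for 2 h, then with an Alexa 488 secondary (1:1000) for 1 h and fixed in 4% paraformaldehyde. Mean fluorescence intensity was read by flow cytometry, and EC50 was derived by curve fitting.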

[2] = molecular target: T30, human wild-type EGFR protein on the cell surface (human, UniProt P00533 25-1210); test: FACS, MFI on A431 cells over MFI on normal primary hepatocytes; ratio of MFI on A431 to MFI on hepatocytes
T30 construct: whole, on cells; Endogenous on A431, HEB, U87MG cells and normal human primary hepatocytes; transfected on CHOk1-EGFR cells; The cell is named under assay; also called A431; HEB

binding result (pep24): no binding | binding result (pep25): no binding | binding result (pep27): no binding | binding result (pep28): no binding | binding result (pep29): no binding | binding result (pep31): no binding | binding result (pep32): no binding | binding result (pep33): no binding | binding result (pep34): no binding | binding result (pep35): no binding | binding result (pep02): no binding | binding result (pep04): no binding | binding result (pep06): no binding | binding result (pep07): no binding | binding result (pep08): no binding | binding result (pep09): no binding | binding result (pep10): no binding | binding result (pep12): no binding | binding result (pep14): no binding | binding result (pep15): no binding | binding result (pep16): no binding | binding result (pep17): no binding | binding result (pep18): no binding | binding result (pep19): no binding | binding result (pep20): no binding | binding result (pep21): no binding | binding result (pep22): no binding | binding result (pep23): no binding
B1: Murine anti-75G7 (antibody, V domains shown)
VH: EVQLQQSGPELVKPGASVKIPCKASGYTFTDYNMDWVKQSHGKSLEWIGDINPNNGDTIYNQKFKGKATLTVDKSSSTAYMELRSLTSEDTAVYYCARGDYDGYYPVYYAMDYWGQGTSVTVSS
VL: ENVLTQSPAIMSASPGEKVTMTCRASSSVSSSYLHWYQQKSGASPKLWIFSTSNLAAGVPARFSGSGSGTSYSLTVSSVEAEDAATYYCQQYSGYPLTFGAGTKLELK
notes: murine hybridoma antibody; also called 75G7C6

EC50 [1]: 5.75 nM | Maximum mean fluorescence intensity [1]: 18100 MFI | Selective window (MFI A431/Hepatocytes) [2]: 26.5 fold
B2: Chimeric antibody 75G7 (antibody, human IgG1, V domains shown)
VH: EVQLQQSGPELVKPGASVKIPCKASGYTFTDYNMDWVKQSHGKSLEWIGDINPNNGDTIYNQKFKGKATLTVDKSSSTAYMELRSLTSEDTAVYYCARGDYDGYYPVYYAMDYWGQGTSVTVSS
VL: ENVLTQSPAIMSASPGEKVTMTCRASSSVSSSYLHWYQQKSGASPKLWIFSTSNLAAGVPARFSGSGSGTSYSLTVSSVEAEDAATYYCQQYSGYPLTFGAGTKLELK
notes: also called c75G7C6; chimeric antibody c75G7C6
